In US20110250613A1, “Arrayed Multiple Ubiquitin Binding Domains as Linkage-specific Polyubiquitin Affinity Reagents” (THE JOHNS HOPKINS UNIVERSITY, priority 2009, published 2011):

Columns and labels:
Conditions in all cases: free fluorescent UBA domain
K63-Ub2 = target: T1, K63-Ub2 (Homo sapiens, UniProt P0CG47, K63R); assay: Fluorescence anisotropy binding of fluorescent free UBA domains to K63-Ub2
T1 construct: Ub and K48- and K63-linked diUb and tetraUb were made as described; made in house
Text: (§1) Fluorescent Labeling. Ede1 UBA, hHR23A UBA1, Dsk2 UBA and Ddi1 UBA were produced as intein fusions and fluorescently labeled using expressed protein ligation as described in Scheibner et al., 2003. The dipeptide used for Ede1 labeling was Cys-Lys, with NHS-rhodamine (Pierce) coupled to the lysine amino group, and was a kind gift from Philip Cole (Johns Hopkins School of Medicine). MALDI mass spectroscopy confirmed the addition of the fluorescent dipeptide to the Ede1 UBA domain and that there was complete cleavage of the initiating methionine residue. hHR23A UBA1, Dsk2, and Ddi1 UBAs were labeled in a similar way, except that the dipeptide contained a fluorescein moiety instead of rhodamine. The fluorescein-labeled dipeptide was made as described in Scheibner et al., 2003. […]
(§2) Fluorescence Anisotropy Binding Assays. Fluorescence anisotropy measurements were performed as described (Sims and Cohen, 2009) using excitation and emission maxima of 492 nm/520 nm (fluorescein), 556 nm/569 nm (Alexa Fluor 546), or 555 nm/578 nm (rhodamine), in binding buffer at 25° C. The concentrations of the fluorescent proteins were calculated using published extinction coefficients (Invitrogen-Molecular Probes). polyUb concentrations were assessed from absorbance at 280 nm using the Ub extinction coefficient of 0.16 (mg per ml)^−1 cm^'1.49. […]

K63-Ub4 = target: T2, K63-Ub4 (Homo sapiens, UniProt P0CG47, K63R); assay: Fluorescence anisotropy binding of fluorescent free UBA domains to K63-Ub4
T2 construct: Ub and K48- and K63-linked diUb and tetraUb were made as described; made in house
Text: as §1, §2

K48-Ub2 = target: T3, K48-Ub2 (Homo sapiens, UniProt P0CG47, K48R); assay: Fluorescence anisotropy binding of fluorescent free UBA domains to K48-Ub2
T3 construct: Ub and K48- and K63-linked diUb and tetraUb were made as described; made in house
Text: as §1, §2

K48-Ub4 = assay: Fluorescence anisotropy binding of fluorescent free UBA domains to K48-Ub4
Text: as §1, §2

Kd (K63-Ub2): 120 µM | Kd (K63-Ub4): 54 µM | Kd (K48-Ub2): 86 µM | Kd (K48-Ub4): 31 µM
B1: Ede1 (protein, UniProt P34216 1-1381, looked up)
EH domain-containing and …: MASITFRTPLSSQEQAFYNQKFHQLDTEDLGVVTGEAVRPLFASSGLPGQLLSQVWATVDIDNKGFLNLNEFSAALRMIAQLQNAPNQPISAALYESTPTQLASFSINQNPAPMQSGSATGNTNNTDIPALSSNDIAKFSQLFDRTAKGAQTVAGDKAKDIFLKARLPNQTLGEIWALCDRDASGVLDKSEFIMAMYLIQLCMSHHPSMNTPPAVLPTQLWDSIRLEPVVVNQPNRTTPLSANSTGVSSLTRHSTISRLSTGAFSNAASDWSLSFEKKQQFDAIFDSLDKQHAGSLSSAVLVPFFLSSRLNQETLATIWDLADIHNNAEFTKLEFAIAMFLIQKKNAGVELPDVIPNELLQSPALGLYPPNPLPQQQSAPQIAIPSRASKPSLQDMPHQVSAPAVNTQPTVPQVLPQNSNNGSLNDLLALNPSFSSPSPTKAQTVVQNNTNNSFSYDNNNGQATLQQQQPQQPPPLTHSSSGLKKFTPTSNFGQSIIKEEPEEQEQLRESSDTFSAQPPPVPKHASSPVKRTASTTLPQVPNFSVFSMPAGAATSAATGAAVGAAVGAAALGASAFSRSSNNAFKNQDLFADGEASAQLSNATTEMANLSNQVNSLSKQASITNDKKSRATQELKRVTEMKNSIQIKLNNLRSTHDQNVKQTEQLEAQVLQVNKENETLAQQLAVSEANYHAAESKLNELTTDLQESQTKNAELKEQITNLNSMTASLQSQLNEKQQQVKQERSMVDVNSKQLELNQVTVANLQKEIDGLGEKISVYLTKQKELNDYQKTVEEQHAQLQAKYQDLSNKDTDLTDREKQLEERNRQIEEQENLYHQHVSKLQEMFDDLSQRKASFEKADQELKERNIEYANNVRELSERQMNLAMGQLPEDAKDIIAKSASNTDTTTKEATSRGNVHEDTVSKFVETTVENSNLNVNRVKDDEEKTERTESDVFDRDVPTLGSQSDSENANTNNGTQSGNETANPNLTETLSDRFDGDLNEYGIPRSQSLTSSVANNAPQSVRDDVELPETLEERDTINNTANRDNTGNLSHIPGEWEATPATASTDVLSNETTEVIEDGSTTKRANSNEDGESVSSIQESPKISAQPKAKTINEEFPPIQELHIDESDSSSSDDDEFEDTREIPSATVKTLQTPYNAQPTSSLEIHTEQVIKYPAPGTSPSHNEGNSKKASTNSILPVKDEFDDEFAGLEQAAVEEDNGADSESEFENVANAGSMEQFETIDHKDLDDELQMNAFTGTLTSSSNPTIPKPQVQQQSTSDPAQVSNDEWDEIFAGFGNSKAEPTKVATPSIPQQPIPLKNDPIVDASLSKGPIVNRGVATTPKSLAVEELSGMGFTEEEAHNALEKCNWDLEAATNFLLDSA
